Experiment [1] addresses T1, recombinant human G-CSF (Genscript) (human, UniProt P09919-2 31-204, limits assumed).
T1 construct: also called hG-CSF; granulocyte colony stimulating factor
T1 sequence (looked up): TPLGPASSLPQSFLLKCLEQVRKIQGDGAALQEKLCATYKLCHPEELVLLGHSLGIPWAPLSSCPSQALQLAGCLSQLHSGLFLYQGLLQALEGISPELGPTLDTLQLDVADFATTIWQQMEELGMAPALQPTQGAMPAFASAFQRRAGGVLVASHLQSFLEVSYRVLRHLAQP
Nature of the experiment: SPR (ProteOn), supernatant captured on anti-mouse Fc, human G-CSF analyte, injection #1. Here is the method: (§1) Affinities of clones 2F6, 1B11, 3G5, 10B9, 9B7, 10G1, and 3B3 were measured by SPR. The work was carried out at the National Research Council of Canada (Montreal, Quebec).
(§2) 2.5% supernatants (except variants 1B11.2 and 10B9.1.2 used 4%) were captured on an anti-mouse Fc antibody, flowed with a 30, 10, 3.33, 1.11, and 0.37 nM concentration series of human G-CSF with buffer blank. Association (ka) and dissociation (kd) rates were measured using a BioRad ProteOn™ instrument. Affinity (KD) was calculated as […].

Experiment [2] addresses T1, recombinant human G-CSF (Genscript). Nature of the experiment: SPR (ProteOn), supernatant captured on anti-mouse Fc, human G-CSF analyte, injection #2. As for the experimental part: as §1, §2
Experiment [3] shares this target. Nature of the experiment: SPR (Antigen binding (SPR)); antibody captured on an anti-Fc surface, antigen flowed over.
Experiment [4] shares this target. Nature of the experiment: SPR (ProteOn), supernatant captured on anti-mouse Fc, human G-CSF analyte, average of two injections. As for the experimental part: as §1, §2
Experiment [5] shares this target. Nature of the experiment: SPR (Antigen binding (SPR)); antibody captured on an anti-Fc surface, antigen flowed over; column head Koff (10-4 x s-1).

B1: anti-G-CSF antibody clone 1B11 (antibody, V domains shown)
VH: QVHLQQSGAELARPGASVKMSCKASGYTFPIYTMHWIKQRPGQGLEWIGYINPSIGYANYNQKFRDKATLTADKSSSTAYMQLSSLTSEDSAVYYCARGGYGDSLFAYWGQGTLVTVSA
VL: DIVMTQAAFSNPVTLGTSASISCRSSKSLLHSNGITYLYWYLQKPGQSPQLLIYQMSNLASGVPDRFSSSGSGTDFTLRISRVEAEDVGVYYCAQNLELPYTFGGGTKLEIK
notes: Mouse hybridoma monoclonal antibody; also called 1B11.2; 3A3
In the case of B1, the Kd came out at 0.0663 nM in experiment [1], 0.0622 nM in experiment [2], 0.06 nM in experiment [3] and 0.064 nM in experiment [4]. The koff in experiment [1] amounted to 5.15e-05 s⁻¹; in experiment [2], 4.72e-05 s⁻¹; in experiment [5], 5e-05 s⁻¹. For the same molecule, the kon turned out to be 777000 M⁻¹ s⁻¹ in experiment [1] and 758000 M⁻¹ s⁻¹ in experiment [2].

B2: 1B11 antibody variant 1 (cL/cH) (antibody, V domains shown)
VH: QVHLQQSGAELARPGASVKMSCKASGYTFPIYTMHWIKQRPGQGLEWIGYINPSIGYANYNQKFRDKATLTADKSSSTAYMQLSSLTSEDSAVYYCARGGYGDSLFAYWGQGTLVTVSA
VL: DIVMTQAAFSNPVTLGTSASISCRSSKSLLHSNGITYLYWYLQKPGQSPQLLIYQMSNLASGVPDRFSSSGSGTDFTLRISRVEAEDVGVYYCAQNLELPYTFGGGTKLEIK
notes: also called clone 1; chimeric 1B11
B2: in experiment [3], the Kd is 0.1 nM. Also, the koff in experiment [5] was determined as 0.00012 s⁻¹.

B3: anti-G-CSF antibody clone 3B3 (antibody, V domains shown)
VH: QVQLQQSGAELARPGASVKMSCKASGYTFTPYTMHWVKQRPGQDLEWIGYINPSINYTNYNQKFKDKATLTADKSSSTAYMQLSSLTSEDSAVYFCARRGSYGNFDYWGQGTTLTVSS
VL: DIVMTQAAFSNPVTLGTSASISCRSNKSLLHSNGITYLYWYLQKPGQSPQLLIYQMSNLASGVPDRFSSSGSGTDFTLRISRVEAEDVGVYYCAQNLELPLTFGAGTKLELK
notes: Mouse hybridoma monoclonal antibody; also called 3B3.2; 3B2
As for B3, the Kd in experiment [1] was 0.329 nM; in experiment [2] it was 0.293 nM; in experiment [4], 0.31 nM. The koff in experiment [1] is 0.000301 s⁻¹; in experiment [2] it was 0.000286 s⁻¹. The values for the kon in experiment [1] and in experiment [2] were 914000 M⁻¹ s⁻¹ and 976000 M⁻¹ s⁻¹, respectively.

B4: humanized 1B11 antibody variant 9 (h1L/h3H) (antibody, V domains shown)
VH: QVQLVQSGAEVKKPGASVKVSCKASGYTFPIYTMHWIKQAPGQGLEWIGYINPSIGYANYNQKFRDRATLTADKSTSTAYMELSSLRSEDTAVYYCARGGYGDSLFAYWGQGTLVTVSS
VL: DIVMTQSPLSLPVTPGEPASISCRSSKSLLHSNGITYLYWYLQKPGQSPQLLIYQMSNLASGVPDRFSGSGSGTDFTLKISRVEAEDVGVYYCAQNLELPYTFGQGTKLEIK
notes: variable domains only; also called clone 9
Take B4: the Kd in experiment [3] was determined as 0.19 nM. Further, the koff in experiment [5] was determined as 0.00017 s⁻¹.

B5: humanized 1B11 antibody variant 8 (h1L/h2H) (antibody, V domains shown)
VH: QVQLVQSGAEVKKPGASVKVSCKASGYTFPIYTMHWIRQAPGQGLEWIGYINPSIGYANYNQKFRDRATLTADTSTSTAYMELSSLRSEDTAVYYCARGGYGDSLFAYWGQGTLVTVSS
VL: DIVMTQSPLSLPVTPGEPASISCRSSKSLLHSNGITYLYWYLQKPGQSPQLLIYQMSNLASGVPDRFSGSGSGTDFTLKISRVEAEDVGVYYCAQNLELPYTFGQGTKLEIK
notes: variable domains only; also called clone 8
Turning to B5, the Kd in experiment [3] is 0.29 nM. Further, the koff in experiment [5] is 0.00017 s⁻¹.

B6: humanized 1B11 antibody variant 7 (h1L/h1H) (antibody, V domains shown)
VH: QVQLVQSGAEVKKPGASVKVSCKASGYTFPIYTMHWVRQAPGQGLEWMGYINPSIGYANYNQKFRDRVTITADTSTSTAYMELSSLRSEDTAVYYCARGGYGDSLFAYWGQGTLVTVSS
VL: DIVMTQSPLSLPVTPGEPASISCRSSKSLLHSNGITYLYWYLQKPGQSPQLLIYQMSNLASGVPDRFSGSGSGTDFTLKISRVEAEDVGVYYCAQNLELPYTFGQGTKLEIK
notes: also called clone 7; Variant 7 anti-G-CSF antibody
As to B6, the Kd in experiment [3] stood at 0.29 nM. Further, in experiment [5], the koff turned out to be 0.00017 s⁻¹.

B7: humanized 1B11 antibody variant 10 (h1L/h4H) (antibody, V domains shown)
VH: QVHLVQSGAEVKKPGASVKVSCKASGYTFPIYTMHWIKQAPGQGLEWIGYINPSIGYANYNQKFRDKATLTADKSTSTAYMELSSLRSEDTAVYYCARGGYGDSLFAYWGQGTLVTVSS
VL: DIVMTQSPLSLPVTPGEPASISCRSSKSLLHSNGITYLYWYLQKPGQSPQLLIYQMSNLASGVPDRFSGSGSGTDFTLKISRVEAEDVGVYYCAQNLELPYTFGQGTKLEIK
notes: variable domains only; also called clone 10
As for B7, in experiment [3], the Kd was 0.16 nM. The koff in experiment [5] stood at 0.00015 s⁻¹.

B8: humanized 1B11 antibody variant 15 (h2L/h4H) (antibody, V domains shown)
VH: QVHLVQSGAEVKKPGASVKVSCKASGYTFPIYTMHWIKQAPGQGLEWIGYINPSIGYANYNQKFRDKATLTADKSTSTAYMELSSLRSEDTAVYYCARGGYGDSLFAYWGQGTLVTVSS
VL: DIVMTQSPLSLPVTPGEPASISCRSSKSLLHSNGITYLYWYLQKPGQSPQLLIYQMSNLASGVPDRFSSSGSGTDFTLKISRVEAEDVGVYYCAQNLELPYTFGQGTKLEIK
notes: variable domains only; also called clone 15
With B8, in experiment [3], the dissociation constant (Kd) came to 0.12 nM. Besides, the off-rate (koff) in experiment [5] came to 0.0001 s⁻¹.

B9: humanized 1B11 antibody variant 13 (h2L/h2H) (antibody, V domains shown)
VH: QVQLVQSGAEVKKPGASVKVSCKASGYTFPIYTMHWIRQAPGQGLEWIGYINPSIGYANYNQKFRDRATLTADTSTSTAYMELSSLRSEDTAVYYCARGGYGDSLFAYWGQGTLVTVSS
VL: DIVMTQSPLSLPVTPGEPASISCRSSKSLLHSNGITYLYWYLQKPGQSPQLLIYQMSNLASGVPDRFSSSGSGTDFTLKISRVEAEDVGVYYCAQNLELPYTFGQGTKLEIK
notes: variable domains only; also called clone 13
Regarding B9, the Kd in experiment [3] stood at 0.2 nM. In experiment [5], the dissociation rate constant (koff) stood at 0.00012 s⁻¹.

B10: humanized 1B11 antibody variant 14 (h2L/h3H) (antibody, V domains shown)
VH: QVQLVQSGAEVKKPGASVKVSCKASGYTFPIYTMHWIKQAPGQGLEWIGYINPSIGYANYNQKFRDRATLTADKSTSTAYMELSSLRSEDTAVYYCARGGYGDSLFAYWGQGTLVTVSS
VL: DIVMTQSPLSLPVTPGEPASISCRSSKSLLHSNGITYLYWYLQKPGQSPQLLIYQMSNLASGVPDRFSSSGSGTDFTLKISRVEAEDVGVYYCAQNLELPYTFGQGTKLEIK
notes: variable domains only; also called clone 14
Take B10: the Kd in experiment [3] is 0.15 nM. Moreover, the koff in experiment [5] stood at 0.00013 s⁻¹.

The values are drawn from patent publication US20230159631A1 (ME THERAPEUTICS, published 2023).
